Test system: purified spectrin

Q: How did the “spectrin cleavage, gel stained with Coomassie's blue” value turn out when calpain (added in the in-tube reaction) was run?
A: Purified spectrins undergo calpain-mediated dynamic cleavage in a test tube due to ambient PAV impact
